Assay results reported in the Human Domainome abundance scans (Beltran et al. 2025).
± gives the uncertainty stated by the source.

B1: DnaJ homolog subfamily C member 5, residues 16 to 77; numbered along this chain, Q9H3Z4 (parent)
chain: LYHVLGLDKNATSDDIKKSYRKLALKYHPDKNPDNPEAADKFKEINNAHAILTDATKRNIYD

Variants of: B1
Assay: abundance fitness (aPCA) (normalised: wild type 0, dead -1); higher = more abundant; growth selection in yeast, the domain comes from the species named
Conditions: Homo sapiens

Abundance fitness: each site, then its substitutions
T53: M -0.157 ± 0.074; C -0.126 ± 0.14; N 0.101 ± 0.15; R -0.127 ± 0.057; P -0.678 ± 0.083; I -0.286 ± 0.087; E -0.277 ± 0.076; K -0.011 ± 0.086; S -0.116 ± 0.074; W -0.579 ± 0.077; A -0.118 ± 0.072; L -0.032 ± 0.054; F -0.491 ± 0.13; Q -0.186 ± 0.083; G 0.07 ± 0.065; D -0.093 ± 0.13
T56: K -0.101 ± 0.12; A -0.233 ± 0.15; Y -0.424 ± 0.27; G -0.09 ± 0.065; F -0.499 ± 0.26; E 0.097 ± 0.16; S -0.15 ± 0.092; V -0.396 ± 0.1; D -0.095 ± 0.2; P -0.516 ± 0.11; R -0.246 ± 0.066; H -0.264 ± 0.11; I -0.425 ± 0.14; W -0.475 ± 0.13; Q -0.417 ± 0.18; L -0.421 ± 0.09; C -0.069 ± 0.12; M -0.334 ± 0.21
Y61: E 0.157 ± 0.12; H 0.054 ± 0.21; M -0.218 ± 0.12; C -0.063 ± 0.098; S 0.182 ± 0.067; F -0.273 ± 0.12; I -0.129 ± 0.11; V 0.002 ± 0.083; Q 0.104 ± 0.14; A 0.165 ± 0.089; L -0.09 ± 0.087; K -0.174 ± 0.15; T 0.073 ± 0.11; D 0.22 ± 0.12; P 0.244 ± 0.12; G 0.226 ± 0.063; W -0.511 ± 0.12; R 0.03 ± 0.076; N -0.199 ± 0.16
A50: V -0.19 ± 0.065; W -0.748 ± 0.13; Y -0.604 ± 0.17
I60: A 0.257 ± 0.092; C 0.109 ± 0.1; T 0.054 ± 0.12; H -0.135 ± 0.2; Q 0.168 ± 0.13; D 0.493 ± 0.21; K 0.197 ± 0.11; P -0.039 ± 0.088; Y -0.074 ± 0.16; E 0.522 ± 0.094; R 0.08 ± 0.059; V 0.176 ± 0.093; G 0.223 ± 0.065; W 0.008 ± 0.09; M 0.114 ± 0.1; S 0.258 ± 0.076; L 0.077 ± 0.093
N59: Y -0.471 ± 0.17; I -0.044 ± 0.12; G 0.101 ± 0.077; S -0.029 ± 0.089; D -0.234 ± 0.19; C 0.032 ± 0.11; A 0.197 ± 0.12; E 0.152 ± 0.11; W -0.396 ± 0.087; L -0.139 ± 0.063; Q 0.007 ± 0.1; H -0.125 ± 0.14; V -0.121 ± 0.1; F -0.151 ± 0.16; M -0.179 ± 0.1; R -0.107 ± 0.072
R58: M -0.471 ± 0.12; D -0.348 ± 0.34; F -0.617 ± 0.2; I -0.503 ± 0.13; N -0.114 ± 0.33; Q -0.161 ± 0.16; C -0.442 ± 0.15; L -0.43 ± 0.075; Y -0.575 ± 0.23; H -0.275 ± 0.16; V -0.363 ± 0.083; S -0.114 ± 0.072; W -0.636 ± 0.08; A -0.044 ± 0.087; P -0.119 ± 0.096; E 0.109 ± 0.12; G -0.21 ± 0.083
L52: N -1.02 ± 0.42; T -0.446 ± 0.081; A -0.303 ± 0.12; V -0.524 ± 0.085; H -0.767 ± 0.26; P -0.292 ± 0.12; R -0.479 ± 0.079; M -0.395 ± 0.11; Q -0.572 ± 0.1; G -0.555 ± 0.094; S -0.493 ± 0.098; D -0.381 ± 0.16; E -0.293 ± 0.12; K -0.419 ± 0.098; W -0.454 ± 0.11; C -0.963 ± 0.26; I -0.592 ± 0.23; F -0.295 ± 0.39
A55: P -0.036 ± 0.14; I -0.406 ± 0.39; K -0.002 ± 0.18; V -0.14 ± 0.1; C -0.37 ± 0.18; H -0.287 ± 0.26; D -0.514 ± 0.37; N -0.117 ± 0.15; Y -0.423 ± 0.27; G -0.151 ± 0.076; E -0.061 ± 0.061; F -0.334 ± 0.17; S -0.135 ± 0.093; W -0.413 ± 0.096; R -0.156 ± 0.072; Q 0.028 ± 0.11; M -0.258 ± 0.12; L -0.26 ± 0.093
D54: W -0.907 ± 0.21; V -0.613 ± 0.11; G -0.304 ± 0.088; K -0.056 ± 0.19; N 0.044 ± 0.13; M -0.634 ± 0.14; C -0.499 ± 0.2; F -1.01 ± 0.21; A -0.214 ± 0.14; Q -0.666 ± 0.22; Y -1.01 ± 0.22; E -0.278 ± 0.11; R -0.382 ± 0.095; T -0.512 ± 0.16; L -0.632 ± 0.1
K57: V -0.656 ± 0.1; E -0.023 ± 0.096; N -0.575 ± 0.33; T -0.415 ± 0.13; C -0.672 ± 0.14; I -0.511 ± 0.13; G -0.373 ± 0.079; Q -0.1 ± 0.12; R -0.059 ± 0.081; A -0.079 ± 0.093; L -0.399 ± 0.079; D -0.079 ± 0.14; M -0.43 ± 0.17; P -0.593 ± 0.16; S -0.349 ± 0.11; F -1.01 ± 0.13; W -0.99 ± 0.13
D62: Q -0.58 ± 0.38; Y -0.849 ± 0.29; K -0.661 ± 0.27; T -0.894 ± 0.49; S -0.421 ± 0.13; W -0.546 ± 0.27; R -0.428 ± 0.4; N -0.465 ± 0.12; P -0.349 ± 0.17; L -0.472 ± 0.28; A -0.188 ± 0.12; G -0.16 ± 0.083; V -0.662 ± 0.14; M -0.743 ± 0.15
I51: E -0.301 ± 0.16; G -0.257 ± 0.094; D 0.123 ± 0.2; S -0.262 ± 0.1; Q 0.036 ± 0.11; T -0.08 ± 0.084; V 0.106 ± 0.085; P -0.166 ± 0.087; N -0.304 ± 0.13; R -0.318 ± 0.064; M -0.131 ± 0.1; C -0.142 ± 0.1; Y -0.353 ± 0.25; L -0.149 ± 0.061; W -0.712 ± 0.14; A -0.146 ± 0.11; F -0.326 ± 0.23
